# Measured values: patent US20170082621A1
# Columns and labels:
# [1] = target: Helicobacter pylori neutrophil-activating protein (HP-NAP) of H. pylori 26695 (Helicobacter pylori strain 26695) (UniProt P43313); test: cell-based or functional assay
# [2] = target: HP-NAPY101H (Helicobacter pylori strain 26695) (UniProt P43313); test: western blot of E. coli lysates, normalised by Ponceau S to wild-type HP-NAP
# [3] = target: HP-NAPE97GY101H (Helicobacter pylori strain 26695) (UniProt P43313); test: as above
# [4] = target: HP-NAPY101H (Helicobacter pylori strain 26695) (UniProt P43313); test: recombinant HP-NAP-based ELISA, antibody X at 600 ng/ml
# [5] = target: HP-NAPE97GY101H (Helicobacter pylori strain 26695) (UniProt P43313); test: as above
substance,measurement,setting,value
"antibody X, commercial IgG/M2 monoclonal antibody (Sigma, F-3165)",inhibition of ROS production upon two hours of HP-NAP stimulation (H2DCF-DA fluorescence),[1],93.2%
same,western-blot signal intensity compared to wild-type HP-NAP,[2],11%
same,western-blot signal intensity compared to wild-type HP-NAP,[3],9%
same,ELISA signal compared to wild-type HP-NAP,[4],60%
same,ELISA signal compared to wild-type HP-NAP,[5],33%
